Assay results taken from patent US20240279345A1, “ALPHA 5 BETA 1 INTEGRIN BINDING AGENTS AND USES THEREOF” (PASITHEA THERAPEUTICS CORP., priority 2021, published 2024).
Substitutions are numbered along the chain they refer to. Names may count otherwise. One block for each molecule: values may come before it.

What was measured:
[1] = biological target: T1, binding of α5β1 integrin to fibronectin (FN) (Homo sapiens, UniProt P05556+P08648); assay: Quantitative FN inhibition (FN-blocking) assay in ELISA format; format: biochemical; conditions: by ELISA
T1 construct: purchased Acro Biosystems IT1-H52W5
T1 sequence (P08648 42-894 limits assumed): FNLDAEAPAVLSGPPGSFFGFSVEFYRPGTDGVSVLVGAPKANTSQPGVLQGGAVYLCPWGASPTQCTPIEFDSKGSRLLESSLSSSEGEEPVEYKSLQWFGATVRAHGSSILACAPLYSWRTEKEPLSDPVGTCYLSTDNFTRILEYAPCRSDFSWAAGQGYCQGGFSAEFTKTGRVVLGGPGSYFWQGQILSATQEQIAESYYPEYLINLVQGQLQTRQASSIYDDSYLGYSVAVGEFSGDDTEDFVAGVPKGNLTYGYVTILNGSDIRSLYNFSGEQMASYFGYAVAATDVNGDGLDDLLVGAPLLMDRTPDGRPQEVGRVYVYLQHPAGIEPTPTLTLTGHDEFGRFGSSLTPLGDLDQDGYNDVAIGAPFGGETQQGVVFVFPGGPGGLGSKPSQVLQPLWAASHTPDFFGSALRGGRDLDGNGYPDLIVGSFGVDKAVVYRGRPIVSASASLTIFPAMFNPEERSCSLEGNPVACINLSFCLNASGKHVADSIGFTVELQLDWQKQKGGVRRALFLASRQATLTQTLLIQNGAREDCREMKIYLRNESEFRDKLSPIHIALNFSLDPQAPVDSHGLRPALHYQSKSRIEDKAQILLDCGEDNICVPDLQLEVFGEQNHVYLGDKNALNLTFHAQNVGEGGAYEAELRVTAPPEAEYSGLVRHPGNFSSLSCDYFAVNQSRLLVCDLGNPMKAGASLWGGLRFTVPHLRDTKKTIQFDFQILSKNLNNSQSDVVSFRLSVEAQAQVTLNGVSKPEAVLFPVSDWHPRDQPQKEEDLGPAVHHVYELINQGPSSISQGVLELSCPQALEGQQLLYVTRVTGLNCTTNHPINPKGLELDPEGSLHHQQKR
T1 sequence (P08648 895-995 limits assumed): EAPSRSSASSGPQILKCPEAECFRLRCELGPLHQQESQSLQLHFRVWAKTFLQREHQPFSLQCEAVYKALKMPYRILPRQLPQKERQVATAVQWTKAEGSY
T1 sequence (P05556 21-728 limits assumed): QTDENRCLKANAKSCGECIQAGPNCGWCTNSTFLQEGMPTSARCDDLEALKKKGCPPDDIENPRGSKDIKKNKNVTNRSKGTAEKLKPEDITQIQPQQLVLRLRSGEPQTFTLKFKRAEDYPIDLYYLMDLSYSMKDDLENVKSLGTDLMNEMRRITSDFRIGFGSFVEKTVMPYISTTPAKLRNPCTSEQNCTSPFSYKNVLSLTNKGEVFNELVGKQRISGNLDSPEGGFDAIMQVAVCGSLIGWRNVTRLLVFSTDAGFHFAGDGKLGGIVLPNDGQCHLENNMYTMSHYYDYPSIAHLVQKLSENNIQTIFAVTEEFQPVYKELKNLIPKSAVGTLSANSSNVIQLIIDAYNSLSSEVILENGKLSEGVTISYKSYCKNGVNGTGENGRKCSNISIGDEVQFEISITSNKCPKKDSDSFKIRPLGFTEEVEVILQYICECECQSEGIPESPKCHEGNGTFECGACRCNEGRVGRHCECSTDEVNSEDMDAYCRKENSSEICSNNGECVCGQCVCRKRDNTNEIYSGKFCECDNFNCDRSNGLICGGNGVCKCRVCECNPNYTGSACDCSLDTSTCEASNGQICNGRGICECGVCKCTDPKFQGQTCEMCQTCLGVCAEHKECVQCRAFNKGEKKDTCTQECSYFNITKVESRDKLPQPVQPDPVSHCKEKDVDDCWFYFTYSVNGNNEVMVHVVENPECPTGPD
From the text: To determine whether the 9 unique hybridoma clones selected as described in Example 4 were able to inhibit the binding of α5β1 integrin to fibronectin (FN), the antibodies were first purified from hybridoma supernatants by Protein A chromatography, protein concentrations measured by BCA assay (Pierce™ BCA Protein Assay Kit; Thermo Fisher Scientific, Waltham, MA, cat. no. 23225) and then tested in a quantitative FN inhibition assay in an ELISA format.
Immulon4 HBX ELISA 96-well plates were coated with FN by incubation overnight at 4° C. with 2.5 μg/mL human FN (R&D Systems, Minneapolis, MN 55413, cat. no. 1918-FN) in 1×PBS (0.01M phosphate buffer and 0.154M NaCl, pH 7.4). Plates were then washed 3 times with Wash Buffer (1× Tris Buffered Saline containing 0.05% Tween20), blocked with 2% BSA in 1×TBS for 2 hours at room temperature (RT). Antibodies were diluted in Standard Diluent (2% BSA, 1×TBS, 0.05% Tween20) containing 0.1 μg/mL rh-α5β1-6×His tagged protein (Acro Biosystems, Newark, DE, cat. no. IT1-H52W5), to generate an 11 point 1:3 antibody dilution series ranging from 10,000 ng/mL to 0.17 ng/mL. Isotype control antibody (Control Ab; Ms IgG2a EMD Millipore Corp, Billerica, MA, cat. no. PP102) was used to normalize data across different assay runs. For the assays, 100 uL of the antibody dilution series/His-tagged-α5β1 mixture was added to the wells after the blocking solution was removed and wells were washed 3 times. Following 1 hour at RT, the wells were washed 3 times, incubated with biotinylated Anti-6×His-Tag Ab (Invitrogen, Carlsbad, CA, cat. no. MAI-21315-BTIN) at 1:1000 in Standard Diluent for 1 hour, washed 3 times, incubated for 30 minutes with poly-HRP Streptavidin (Thermo Fisher Scientific, Waltham, MA, cat. no. N200), washed 4 times, incubated with TMB substrate (Thermo Fisher Scientific, Waltham, MA, cat. no. N301) for 2-5 minutes, followed by addition of ELISA Stop Solution (Invitrogen, Carlsbad, CA, cat. no. SS04). Absorbance 450 nm was measured. Data points were normalized to the isotype Control Ab values at each concentration and reported as % Absorbance 450 nm normalized to Control Ab. Non-linear regression analysis was used to fit curves (4-parameter) to the data using GraphPad Prism version 9.0.2 (GraphPad Software, LLC, San Diego, CA).
Freeze-thaw stability was tested on a small aliquot of each chimera antibody by overnight storage at −80° C. followed by thaw on ice, repeated three times. […] IC50s were calculated by non-linear regression analysis curve-fitting (4-parameter) of the ELISA data (FIG. 5) using GraphPad Prism version 9.0.2 (GraphPad Software, LLC, San Diego, CA). […]

[2] = biological target: T2, recombinant mouse α5β1 (rm-α5β1) (Mus musculus, UniProt P09055+P11688); assay: Plate-based ELISA cross-reactivity to rm-α5β1; format: binding; conditions: hybridoma supernatant diluted 1:10; plate coated with rm-α5β1
T2 construct: purchased R&D Systems 7728-A5
T2 sequence (P11688 45-898 limits assumed): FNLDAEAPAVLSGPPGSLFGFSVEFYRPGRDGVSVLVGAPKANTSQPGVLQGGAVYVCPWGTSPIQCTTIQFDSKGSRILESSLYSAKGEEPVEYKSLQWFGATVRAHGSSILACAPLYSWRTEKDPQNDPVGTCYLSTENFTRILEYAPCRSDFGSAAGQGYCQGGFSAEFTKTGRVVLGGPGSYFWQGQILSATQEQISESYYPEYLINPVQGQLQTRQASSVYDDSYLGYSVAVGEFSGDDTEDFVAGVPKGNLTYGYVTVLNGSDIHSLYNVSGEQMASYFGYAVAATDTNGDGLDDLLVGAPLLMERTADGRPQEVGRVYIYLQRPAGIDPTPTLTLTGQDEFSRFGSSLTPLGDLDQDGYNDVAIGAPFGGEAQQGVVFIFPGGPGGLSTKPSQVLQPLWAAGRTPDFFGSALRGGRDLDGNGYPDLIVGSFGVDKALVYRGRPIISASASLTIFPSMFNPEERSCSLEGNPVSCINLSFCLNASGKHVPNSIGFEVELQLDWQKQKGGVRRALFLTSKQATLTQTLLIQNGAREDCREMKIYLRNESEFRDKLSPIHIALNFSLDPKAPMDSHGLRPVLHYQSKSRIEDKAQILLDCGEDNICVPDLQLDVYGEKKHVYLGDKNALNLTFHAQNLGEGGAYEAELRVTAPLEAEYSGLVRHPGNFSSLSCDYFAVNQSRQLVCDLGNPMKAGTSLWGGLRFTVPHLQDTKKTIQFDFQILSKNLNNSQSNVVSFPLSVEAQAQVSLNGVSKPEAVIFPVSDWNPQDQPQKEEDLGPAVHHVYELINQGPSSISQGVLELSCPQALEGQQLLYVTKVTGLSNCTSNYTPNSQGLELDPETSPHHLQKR
T2 sequence (P11688 899-999 limits assumed): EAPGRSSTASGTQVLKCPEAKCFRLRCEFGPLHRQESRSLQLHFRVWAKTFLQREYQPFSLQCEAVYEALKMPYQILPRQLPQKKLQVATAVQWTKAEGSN
T2 sequence (P09055 21-728 limits assumed): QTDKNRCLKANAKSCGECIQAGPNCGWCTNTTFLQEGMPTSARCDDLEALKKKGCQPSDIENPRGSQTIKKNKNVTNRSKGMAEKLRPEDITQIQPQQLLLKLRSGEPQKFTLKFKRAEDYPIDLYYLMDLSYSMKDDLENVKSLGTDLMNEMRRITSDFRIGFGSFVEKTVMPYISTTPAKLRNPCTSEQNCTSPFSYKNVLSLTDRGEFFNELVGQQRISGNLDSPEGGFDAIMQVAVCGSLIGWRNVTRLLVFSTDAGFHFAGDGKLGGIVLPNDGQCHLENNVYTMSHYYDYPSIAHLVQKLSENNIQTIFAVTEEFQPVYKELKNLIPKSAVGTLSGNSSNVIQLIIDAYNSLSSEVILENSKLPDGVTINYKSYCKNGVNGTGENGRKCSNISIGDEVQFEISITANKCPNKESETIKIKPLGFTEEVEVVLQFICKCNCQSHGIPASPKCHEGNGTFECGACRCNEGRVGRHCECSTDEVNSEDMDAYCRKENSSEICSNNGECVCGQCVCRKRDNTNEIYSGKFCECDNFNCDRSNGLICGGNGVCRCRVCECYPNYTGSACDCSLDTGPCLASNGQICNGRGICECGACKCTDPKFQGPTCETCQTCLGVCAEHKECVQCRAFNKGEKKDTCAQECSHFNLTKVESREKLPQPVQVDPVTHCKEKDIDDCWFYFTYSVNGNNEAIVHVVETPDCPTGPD
Description: (§1) The 249 positive hybridoma supernatants selected as described in Example 1 were screened for reactivity to rh-α5β1 in a plate-based ELISA. Immulon4 HBX ELISA 96-well plates (Thermo Fisher Scientific, Waltham, MA, cat. no. 3855) were coated with rh-α5β1 (R&D Systems, Minneapolis, MN 55413, cat. no. 3230-A5), at 1 μg/mL in PBS supplemented with 0.5 mM MgCl2, MnCl2 and CaCl2 and incubated overnight at 4° C. Plates were washed 3 times with Wash Buffer (1× Tris Buffered Saline containing 0.05% Tween20), blocked with 2% BSA in 1×TBS (made from 10× Thermo Scientific Blocker BSA (10×) in TBS; Thermo Fisher Scientific, Waltham, MA, cat. no. 37520) for 2 hours at room temperature (RT) then incubated with hybridoma supernatants diluted 1:10 with Standard Diluent (2% BSA, 1×TBS, 0.05% Tween20). Following a 1 hour incubation at RT, wells were washed 3 times, incubated with biotinylated goat anti-mouse secondary antibody at 1:8000 dilution (Invitrogen, Carlsbad, CA, cat. no. 62-6540) for 1 hour, washed 3 times, then incubated for 30 minutes with poly-HRP Streptavidin (Thermo Fisher Scientific, Waltham, MA, cat. no. N200), washed 4 times, incubated with TMB (Thermo Fisher Scientific, Waltham, MA, cat. no. N301) for 5-10 minutes, followed by addition of ELISA Stop Solution (Invitrogen, Carlsbad, CA, cat. no. SS04). Absorbance 450 nm was measured.
In addition, hybridomas were tested for cross-reactivity to recombinant mouse α5β1 (rm-α5β1; R&D Systems, Minneapolis, MN 55413; cat. no. 7728-A5) using the same protocol as above except that the plates were coated with rm-α5β1.

rh-α4β1 = biological target: T3, rh-α4β1 (Homo sapiens, UniProt P05556+P13612); assay: Plate-based ELISA reactivity to rh-α4β1 (α5 subunit specificity); format: binding; conditions: hybridoma supernatant diluted 1:10; plate coated with rh-α4β1
T3 construct: purchased R&D Systems 3230-A5 & 5668-A4
T3 sequence (P13612 34-977 limits assumed): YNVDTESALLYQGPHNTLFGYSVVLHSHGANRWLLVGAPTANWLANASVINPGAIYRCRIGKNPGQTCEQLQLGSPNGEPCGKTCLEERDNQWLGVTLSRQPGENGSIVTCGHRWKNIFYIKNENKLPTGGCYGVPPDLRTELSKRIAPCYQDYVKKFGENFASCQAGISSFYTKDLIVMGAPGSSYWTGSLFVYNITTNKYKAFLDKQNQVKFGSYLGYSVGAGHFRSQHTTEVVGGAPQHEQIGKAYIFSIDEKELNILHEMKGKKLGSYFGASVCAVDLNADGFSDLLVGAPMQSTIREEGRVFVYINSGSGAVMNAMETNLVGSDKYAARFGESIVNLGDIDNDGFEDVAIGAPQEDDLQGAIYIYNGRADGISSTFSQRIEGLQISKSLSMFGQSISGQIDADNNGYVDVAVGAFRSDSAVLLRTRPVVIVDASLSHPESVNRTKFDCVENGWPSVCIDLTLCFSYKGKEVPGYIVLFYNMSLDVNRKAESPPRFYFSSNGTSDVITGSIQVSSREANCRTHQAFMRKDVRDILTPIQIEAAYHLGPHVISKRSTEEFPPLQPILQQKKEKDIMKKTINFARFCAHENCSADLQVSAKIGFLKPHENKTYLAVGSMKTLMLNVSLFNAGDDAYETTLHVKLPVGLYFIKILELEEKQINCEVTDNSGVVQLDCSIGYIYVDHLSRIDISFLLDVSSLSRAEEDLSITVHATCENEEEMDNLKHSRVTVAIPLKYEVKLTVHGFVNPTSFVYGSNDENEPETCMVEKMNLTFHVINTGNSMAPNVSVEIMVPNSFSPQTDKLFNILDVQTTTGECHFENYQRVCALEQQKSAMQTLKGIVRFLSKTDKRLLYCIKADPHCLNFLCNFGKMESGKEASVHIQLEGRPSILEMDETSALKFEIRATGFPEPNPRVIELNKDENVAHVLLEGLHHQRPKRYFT
T3 sequence (P05556 21-728 limits assumed): as the sequence (P05556 21-728 limits assumed) above
Description: as §1
In parallel the 249 hybridomas were screened for specificity to the human α5 subunit by testing for reactivity to rh-α4β1 (R&D Systems, Minneapolis, MN 55413; cat. no. 3230-A5 & 5668-A4). Any hybridoma that reacted to both rh-α4β1 and rh-α5β1 is likely to be β1 subunit specific and not considered α5 specific. Using the protocol described above, 29 hybridoma supernatants reacted strongly (>1.0 Absorbance 450 nm) with rh-α4β1 and were not considered to be α5 specific.

[3] = biological target: T4, recombinant human α5β1 integrin (rh-α5β1) (Homo sapiens, UniProt P05556+P08648); assay: Plate-based ELISA reactivity to rh-α5β1; format: binding; conditions: selected for further characterization among α5 specific hybridomas (28 selected)
T4 construct: purchased R&D Systems 3230-A5
T4 sequence (P08648 42-894 limits assumed): as the sequence (P08648 42-894 limits assumed) above
T4 sequence (P08648 895-995 limits assumed): as the sequence (P08648 895-995 limits assumed) above
T4 sequence (P05556 21-728 limits assumed): as the sequence (P05556 21-728 limits assumed) above
Description: as §1

- class of FN binding blocker [1]: strong blockers of FN binding
B1: A-15B08-T62A: human IgG4 chimera variant of A-15B08, Thr62 to Ala in CDRH2; VH SEQ ID NO:135, VL SEQ ID NO:26 (antibody, V domains shown)
VH: QVQLKESGPGLVAPSQSLSITCTISGFSLTSYGVHWVRQPPGKGLEWLVVIWSDGSTTYNSALKSRLSISKDNSKSQVFFKMNSLQTDDTAMYYCARHYDYDGDWFAYWGQGTLVTVSA
VL: QIVLTQSPAIMSASLGERVTMTCTASSRVSSNSLHWYQQKPGSSPKLWIYSTSNLASGVPARFSGSGSGTSYSLTISSMEAEDAATYYCHQYLRSPPTFGGGTKLEIK
modifications: human IgG4 constant regions; A-15B08-T62A VH Sequence; A-15B08 VL Sequence

- Absorbance 450 nm Mouse α5β1 [2]: 0.6708
B2: A-3A08: hybridoma clone positive on K562 cells (antibody, V domains shown)
VH: QVQLKESGPGLVAPSQSLSITCTISGFSLTTYGVHWVRQPPGKGLEWLVVIWSDGSTTYNSALKSRLNITKDNSKSQVFLKMNSLQTDDTAMYYCVRHGGLLRRDAMDYWGQGTSVTVSS
VL: B1 VL with R28S, L34F, I49L

- Absorbance 450 nm Human α4β1 (rh-α4β1): 0.0608
- Absorbance 450 nm Mouse α5β1 [2]: 0.0619
- Selected Human α5 Specific [3]: Yes
B3: A2-9A11: hybridoma clone positive on K562 cells (antibody, V domains shown)
VH: B2 VH
VL: B1 VL with R28S, L34F, I49L

- Absorbance 450 nm Human α4β1 (rh-α4β1): 0.0595
- Absorbance 450 nm Mouse α5β1 [2]: 0.0515
- Selected Human α5 Specific [3]: Yes
B4: A2-8H11: hybridoma clone positive on K562 cells (antibody, V domains shown)
VH: B2 VH
VL: B1 VL with R28S, L34F, I49L

- Absorbance 450 nm Human α4β1 (rh-α4β1): 0.0609
- Absorbance 450 nm Mouse α5β1 [2]: 0.0551
- Selected Human α5 Specific [3]: Yes
B5: A2-6C10: hybridoma clone positive on K562 cells (antibody, V domains shown)
VH: B2 VH
VL: B1 VL with R28S, L34F, I49L
